According to paper PMC4874879 (Molecular cell, 2016):

Legend:
[1] = molecular target: FLAG- and V5-tagged ATXN7L3 (UniProt Q14CW9); assay: affinity purification with mass spectrometry
[2] = molecular target: T1, FLAG- and V5-tagged ATXN7L3 (UniProt Q14CW9 1-347); assay: affinity purification with mass spectrometry
T1 sequence (looked up): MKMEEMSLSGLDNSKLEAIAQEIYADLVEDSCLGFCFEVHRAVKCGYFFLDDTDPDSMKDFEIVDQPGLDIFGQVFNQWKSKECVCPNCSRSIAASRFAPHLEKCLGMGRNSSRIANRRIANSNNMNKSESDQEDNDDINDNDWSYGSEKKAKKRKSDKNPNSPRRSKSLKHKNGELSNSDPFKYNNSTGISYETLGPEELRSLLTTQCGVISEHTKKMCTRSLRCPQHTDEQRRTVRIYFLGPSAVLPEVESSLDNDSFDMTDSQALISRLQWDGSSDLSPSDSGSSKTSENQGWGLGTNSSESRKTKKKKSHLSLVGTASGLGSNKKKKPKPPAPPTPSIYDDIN

Sequence of USP27X (endogenous) (enzyme) (A6NNY8 whole entry): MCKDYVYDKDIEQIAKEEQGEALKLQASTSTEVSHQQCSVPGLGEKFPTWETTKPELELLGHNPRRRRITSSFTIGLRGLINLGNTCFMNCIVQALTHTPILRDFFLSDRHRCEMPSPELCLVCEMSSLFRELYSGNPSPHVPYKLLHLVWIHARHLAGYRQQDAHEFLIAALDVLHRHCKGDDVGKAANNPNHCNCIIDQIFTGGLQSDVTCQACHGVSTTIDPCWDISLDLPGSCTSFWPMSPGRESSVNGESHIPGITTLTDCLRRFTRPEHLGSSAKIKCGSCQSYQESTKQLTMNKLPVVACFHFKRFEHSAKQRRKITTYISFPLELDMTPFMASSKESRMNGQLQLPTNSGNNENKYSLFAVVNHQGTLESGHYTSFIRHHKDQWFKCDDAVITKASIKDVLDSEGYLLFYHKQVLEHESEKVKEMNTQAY

Molecule	fold increase of association with ATXN7L3 upon depletion of USP22 [1] [fold]	fold increase of association with ATXN7L3 upon depletion of USP22 [2] [fold]
USP27X (endogenous) (enzyme)	5.5	–
USP51 (endogenous) (enzyme, human (endogenous in 293T), UniProt Q70EK9 1-711, looked up) MAQVRETSLPSGSGVRWISGGGGGASPEEAVEKAGKMEEAAAGATKASSRREAEEMKLEPLQEREPAPEENLTWSSSGGDEKVLPSIPLRCHSSSSPVCPRRKPRPRPQPRARSRSQPGLSAPPPPPARPPPPPPPPPPPAPRPRAWRGSRRRSRPGSRPQTRRSCSGDLDGSGDPGGLGDWLLEVEFGQGPTGCSHVESFKVGKNWQKNLRLIYQRFVWSGTPETRKRKAKSCICHVCSTHMNRLHSCLSCVFFGCFTEKHIHKHAETKQHHLAVDLYHGVIYCFMCKDYVYDKDIEQIAKETKEKILRLLTSTSTDVSHQQFMTSGFEDKQSTCETKEQEPKLVKPKKKRRKKSVYTVGLRGLINLGNTCFMNCIVQALTHIPLLKDFFLSDKHKCIMTSPSLCLVCEMSSLFHAMYSGSRTPHIPYKLLHLIWIHAEHLAGYRQQDAHEFLIAILDVLHRHSKDDSGGQEANNPNCCNCIIDQIFTGGLQSDVTCQACHSVSTTIDPCWDISLDLPGSCATFDSQNPERADSTVSRDDHIPGIPSLTDCLQWFTRPEHLGSSAKIKCNSCQSYQESTKQLTMKKLPIVACFHLKRFEHVGKQRRKINTFISFPLELDMTPFLASTKESRMKEGQPPTDCVPNENKYSLFAVINHHGTLESGHYTSFIRQQKDQWFSCDDAIITKATIEDLLYSEGYLLFYHKQGLEKD	–	~4
